Changes are numbered by the printed parent chain. Numbers in names are those of the source. One block for each binder: values may come before it.
Biological target: T1, Human CD3eg linker (human)
T1 construct: Single chain: epsilon and gamma subunits of human CD3 joined by a 29-mer linker, Flag-tag at the C-terminus; also called recombinant human CD3
T1 chain: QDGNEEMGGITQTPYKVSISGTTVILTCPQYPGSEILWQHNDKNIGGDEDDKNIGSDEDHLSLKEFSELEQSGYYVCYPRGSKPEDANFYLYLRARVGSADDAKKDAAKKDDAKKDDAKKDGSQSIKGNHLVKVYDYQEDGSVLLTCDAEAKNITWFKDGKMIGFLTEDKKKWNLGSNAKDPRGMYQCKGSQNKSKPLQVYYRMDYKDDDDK
Test: Biacore SPR, vs template H183/L072

B1: H183/L072 VH F27G (antibody, name in Kabat numbering, V domains shown)
VH: QVQLVESGGGLVQPGRSLRLSCAASGGTFSNAWMHWVRQAPGKGLEWVAQIKDKGNAYAAYYAPSVKGRFTISRDDSKNSIYLQMNSLKTEDTAVYYCHYVHYASASTVLPAFGVDAWGQGTTVTVSS
VL: DIVMTQSPLSLPVTPGEPASISCQASQELVHMNRNTYLHWYQQKPGQAPRLLIYKVSNRFPGVPDRFSGSGSGTDFTLKISRVEAEDVGVYYCAQGTSVPFTFGQGTKLEIK
- fold change of affinity: 0.5 fold

B2: H183/L072 VH F27W (antibody, name in Kabat numbering, V domains shown)
VH: B1 VH with G27W
VL: B1 VL
- fold change of affinity: 0 fold

B4: H183/L072 VH G26L (antibody, name in Kabat numbering, V domains shown)
VH: B1 VH with G26L, G27F
VL: B1 VL
- fold change of affinity: 0.6 fold

B5: H183/L072 VH G26F (antibody, name in Kabat numbering, V domains shown)
VH: B1 VH with G26F, G27F
VL: B1 VL
- fold change of affinity: 0.4 fold

B6: H183/L072 VH F27Y (antibody, name in Kabat numbering, V domains shown)
VH: B1 VH with G27Y
VL: B1 VL
- fold change of affinity: 0 fold

B8: H183/L072 VH F27Q (antibody, name in Kabat numbering, V domains shown)
VH: B1 VH with G27Q
VL: B1 VL
- fold change of affinity: 0 fold

B10: H183/L072 VH F29H (antibody, name in Kabat numbering, V domains shown)
VH: B1 VH with G27F, F29H
VL: B1 VL
- fold change of affinity: 0 fold

B11: H183/L072 VH G26D (antibody, name in Kabat numbering, V domains shown)
VH: B1 VH with G26D, G27F
VL: B1 VL
- fold change of affinity: 0.2 fold

B12: H183/L072 VH F100gP (antibody, name in Kabat numbering, V domains shown)
VH: B1 VH with G27F, F113P
VL: B1 VL
- fold change of affinity: 1.8 fold

B14: H183/L072 VH F29E (antibody, name in Kabat numbering, V domains shown)
VH: B1 VH with G27F, F29E
VL: B1 VL
- fold change of affinity: 0.1 fold

B15: H183/L072 VH F27K (antibody, name in Kabat numbering, V domains shown)
VH: B1 VH with G27K
VL: B1 VL
- fold change of affinity: 0.3 fold

B16: H183/L072 VH G26I (antibody, name in Kabat numbering, V domains shown)
VH: B1 VH with G26I, G27F
VL: B1 VL
- fold change of affinity: 0.5 fold

B17: H183/L072 VH F29Q (antibody, name in Kabat numbering, V domains shown)
VH: B1 VH with G27F, F29Q
VL: B1 VL
- fold change of affinity: 0.2 fold

B20: H183/L072 VH F29V (antibody, name in Kabat numbering, V domains shown)
VH: B1 VH with G27F, F29V
VL: B1 VL
- fold change of affinity: 0 fold

B25: H183/L072 VH F27I (antibody, name in Kabat numbering, V domains shown)
VH: B1 VH with G27I
VL: B1 VL
- fold change of affinity: 0.6 fold

B26: H183/L072 VH F29Y (antibody, name in Kabat numbering, V domains shown)
VH: B1 VH with G27F, F29Y
VL: B1 VL
- fold change of affinity: 0.4 fold

B28: H183/L072 VH F100gM (antibody, name in Kabat numbering, V domains shown)
VH: B1 VH with G27F, F113M
VL: B1 VL
- fold change of affinity: 1.4 fold

B29: H183/L072 VH F29K (antibody, name in Kabat numbering, V domains shown)
VH: B1 VH with G27F, F29K
VL: B1 VL
- fold change of affinity: 0.1 fold

B30: H183/L072 VH F27L (antibody, name in Kabat numbering, V domains shown)
VH: B1 VH with G27L
VL: B1 VL
- fold change of affinity: 0.4 fold

B31: H183/L072 VH F100gL (antibody, name in Kabat numbering, V domains shown)
VH: B1 VH with G27F, F113L
VL: B1 VL
- fold change of affinity: 1.3 fold

B32: H183/L072 VH F29M (antibody, name in Kabat numbering, V domains shown)
VH: B1 VH with G27F, F29M
VL: B1 VL
- fold change of affinity: 0.4 fold

B33: H183/L072 VH F27M (antibody, name in Kabat numbering, V domains shown)
VH: B1 VH with G27M
VL: B1 VL
- fold change of affinity: 0.5 fold

B35: H183/L072 VH G26H (antibody, name in Kabat numbering, V domains shown)
VH: B1 VH with G26H, G27F
VL: B1 VL
- fold change of affinity: 0 fold

B36: H183/L072 VH G26K (antibody, name in Kabat numbering, V domains shown)
VH: B1 VH with G26K, G27F
VL: B1 VL
- fold change of affinity: 0.6 fold

B37: H183/L072 VH F27T (antibody, name in Kabat numbering, V domains shown)
VH: B1 VH with G27T
VL: B1 VL
- fold change of affinity: 0 fold

B40: H183/L072 VH F29L (antibody, name in Kabat numbering, V domains shown)
VH: B1 VH with G27F, F29L
VL: B1 VL
- fold change of affinity: 0.4 fold

B42: H183/L072 VH F27V (antibody, name in Kabat numbering, V domains shown)
VH: B1 VH with G27V
VL: B1 VL
- fold change of affinity: 0.3 fold

B43: H183/L072 VH F100gA (antibody, name in Kabat numbering, V domains shown)
VH: B1 VH with G27F, F113A
VL: B1 VL
- fold change of affinity: 1.7 fold

B44: H183/L072 VH F29T (antibody, name in Kabat numbering, V domains shown)
VH: B1 VH with G27F, F29T
VL: B1 VL
- fold change of affinity: 0.2 fold

B45: H183/L072 VH F29P (antibody, name in Kabat numbering, V domains shown)
VH: B1 VH with G27F, F29P
VL: B1 VL
- fold change of affinity: 0.2 fold

Results, then the binder that gave them:

- fold change of affinity: 0.5 fold
B3: H183/L072 VH F29W (antibody, name in Kabat numbering, V domains shown)
VH: B1 VH with G27F, F29W
VL: B1 VL

- fold change of affinity: 0 fold
B7: H183/L072 VH F29R (antibody, name in Kabat numbering, V domains shown)
VH: B1 VH with G27F, F29R
VL: B1 VL

- fold change of affinity: 0.2 fold
B9: H183/L072 VH F29A (antibody, name in Kabat numbering, V domains shown)
VH: B1 VH with G27F, F29A
VL: B1 VL

- fold change of affinity: 0 fold
B13: H183/L072 VH F29G (antibody, name in Kabat numbering, V domains shown)
VH: B1 VH with G27F, F29G
VL: B1 VL

- fold change of affinity: 0.1 fold
B18: H183/L072 VH F29S (antibody, name in Kabat numbering, V domains shown)
VH: B1 VH with G27F, F29S
VL: B1 VL

- fold change of affinity: 0 fold
B19: H183/L072 VH F29D (antibody, name in Kabat numbering, V domains shown)
VH: B1 VH with G27F, F29D
VL: B1 VL

- fold change of affinity: 0.6 fold
B21: H183/L072 VH G26E (antibody, name in Kabat numbering, V domains shown)
VH: B1 VH with G26E, G27F
VL: B1 VL

- fold change of affinity: 0.2 fold
B22: H183/L072 VH F27R (antibody, name in Kabat numbering, V domains shown)
VH: B1 VH with G27R
VL: B1 VL

- fold change of affinity: 0.4 fold
B23: H183/L072 VH F27N (antibody, name in Kabat numbering, V domains shown)
VH: B1 VH with G27N
VL: B1 VL

- fold change of affinity: 1.2 fold
B24: H183/L072 VH F100gI (antibody, name in Kabat numbering, V domains shown)
VH: B1 VH with G27F, F113I
VL: B1 VL

- fold change of affinity: 0 fold
B27: H183/L072 VH F27P (antibody, name in Kabat numbering, V domains shown)
VH: B1 VH with G27P
VL: B1 VL

- fold change of affinity: 0 fold
B34: H183/L072 VH F29N (antibody, name in Kabat numbering, V domains shown)
VH: B1 VH with G27F, F29N
VL: B1 VL

- fold change of affinity: 0.3 fold
B38: H183/L072 VH F29I (antibody, name in Kabat numbering, V domains shown)
VH: B1 VH with G27F, F29I
VL: B1 VL

- fold change of affinity: 0.1 fold
B39: H183/L072 VH F27H (antibody, name in Kabat numbering, V domains shown)
VH: B1 VH with G27H
VL: B1 VL

- fold change of affinity: 0 fold
B41: H183/L072 VH F27S (antibody, name in Kabat numbering, V domains shown)
VH: B1 VH with G27S
VL: B1 VL
